These results are taken from FireProtDB (doi:10.1021/bi00107a010).

Broadly, the Tm is the temperature at which the thermal transition is half complete.

B1: wild type, Q40059 (protein)
chain: MSSMEKKPEGVNIGAGDRQNQKTEWPELVGKSVEEAKKVILQDKPAAQIIVLPVGTIVTMEYRIDRVRLFVDRLDNIAQVPRVG
B2: Subtilisin-chymotrypsin inhibitor-2A wild type, P01053 (protein)
chain: MSSVEKKPEGVNTGAGDRHNLKTEWPELVGKSVEEAKKVILQDKPEAQIIVLPVGTIVTMEYRIDRVRLFVDKLDNIAQVPRVG

For the first data set the following is noted: Hordeum vulgare; pH 2.2; 25 °C; Thermal; DSC; glycine-HCl 10 mM; reversible: yes; whole UniProt chain shown.
For B1, the “heat capacity change of unfolding” value was found to be 0.79 kcal/mol/K and the unfolding free energy was found to be 1.94 kcal/mol.

The data set is the same for the next values; noted with them: Hordeum vulgare; pH 2.5; 25 °C; Thermal; DSC; glycine-HCl 10 mM; reversible: yes; whole UniProt chain shown.
As for B1, the “heat capacity change of unfolding” value is 0.79 kcal/mol/K and the unfolding free energy was found to be 2.79 kcal/mol.

The same data set, now with this note: Hordeum vulgare; pH 2.8; 25 °C; Thermal; DSC; glycine-HCl 10 mM; reversible: yes; whole UniProt chain shown.
With B1, the “heat capacity change of unfolding” value turned out to be 0.79 kcal/mol/K and the unfolding free energy is 3.73 kcal/mol.

Still in this data set, the particulars now being: Hordeum vulgare; pH 3.2; 25 °C; Thermal; DSC; glycine-HCl 10 mM; reversible: yes; whole UniProt chain shown.
Turning to B1, the “heat capacity change of unfolding” value amounted to 0.79 kcal/mol/K and the unfolding free energy turned out to be 5.2 kcal/mol.

Still in this data set, the particulars now being: Hordeum vulgare; pH 3.5; 25 °C; Thermal; DSC; glycine-HCl 10 mM; reversible: yes; whole UniProt chain shown.
On to B1, for which the “heat capacity change of unfolding” value is 0.79 kcal/mol/K and the unfolding free energy was 6.48 kcal/mol.

Still in this data set, the particulars now being: Hordeum vulgare; pH 2.2; Thermal; DSC; glycine-HCl 10 mM; reversible: yes; whole UniProt chain shown.
With B2, the melting temperature (Tm) turned out to be 41.6 °C, the “unfolding enthalpy (calorimetric)” value turned out to be 43.5 kcal/mol and the “unfolding enthalpy (van 't Hoff)” value is 42.3 kcal/mol.

Still in this data set, the particulars now being: Hordeum vulgare; pH 2.5; Thermal; DSC; glycine-HCl 10 mM; reversible: yes; whole UniProt chain shown.
In the case of B2, the midpoint of thermal melting (Tm) worked out at 47.2 °C, the “unfolding enthalpy (calorimetric)” value came to 49.2 kcal/mol and the “unfolding enthalpy (van 't Hoff)” value was 45.5 kcal/mol.

Still in this data set, the particulars now being: Hordeum vulgare; pH 2.8; Thermal; DSC; glycine-HCl 10 mM; reversible: yes; whole UniProt chain shown.
B2: the melting temperature (Tm) worked out at 55.2 °C, the “unfolding enthalpy (calorimetric)” value was found to be 52.8 kcal/mol and the “unfolding enthalpy (van 't Hoff)” value was 51.1 kcal/mol.

Staying with this data set, now noted: Hordeum vulgare; pH 3.2; Thermal; DSC; glycine-HCl 10 mM; reversible: yes; whole UniProt chain shown.
In the case of B2, the melting temperature (Tm) was 64 °C, the “unfolding enthalpy (calorimetric)” value was determined as 61 kcal/mol and the “unfolding enthalpy (van 't Hoff)” value is 60.8 kcal/mol.

Still in this data set, the particulars now being: Hordeum vulgare; pH 3.5; Thermal; DSC; glycine-HCl 10 mM; reversible: yes; whole UniProt chain shown.
As for B2, the Tm was determined as 71 °C, the “unfolding enthalpy (calorimetric)” value is 67.5 kcal/mol and the “unfolding enthalpy (van 't Hoff)” value worked out at 68.8 kcal/mol.
